Common to all, as to assay: EMSA
Background: Mobility shift assays separate free from complexed probe on a gel.

In data set [1] the target is T1, 6H-QseC2 (Mesorhizobium japonicum R7A, UniProt A0ABX6MZB7 1-81).
For data set [2], the target named is T1, 6H-QseC2. The source holds these as a separate data set.
Data set [3] has as its target T1, 6H-QseC2. The source holds these as a separate data set.
Data set [4] deals with T1, 6H-QseC2. The source holds these as a separate data set.

Numbering of substitutions follows the chain as printed. Names may count otherwise. Where two headings read alike, the source gives them in different places.

B1: O2L-O2R EMSA (dsDNA)
DNA 1: TACGTGGTTGAATGCTCGACACTACATGGCGCGGTTTGCCTTGTGGATTGCAAATATATCCTAAAATGGGATAATCCGAAACTGGGATTAGTTGATGAGCCGGTTCCCTTCTGGCCGGTTCATCTGATGCAGCGTGCGCTACTAGTTCCCGTA
DNA 2: TACGGGAACTAGTAGCGCACGCTGCATCAGATGAACCGGCCAGAAGGGAACCGGCTCATCAACTAATCCCAGTTTCGGATTATCCCATTTTAGGATATATTTGCAATCCACAAGGCAAACCGCGCCATGTAGTGTCGAGCATTCAACCACGTA
B1: the binding result in data set [1] is given as “binds”.

B2: O2R EMSA (O2L scrambled) (dsDNA)
DNA 1: B1 DNA 1 with A58G, T59A, C60G, C61T, A63C, A66T, T67C, G68T, G70A, T72A
DNA 2: B1 DNA 2 with A82T, C84T, C86A, A87G, T88A, T91G, G93A, G94C, A95T, T96C
B2: the binding result in data set [2] is given as “binds”.

B3: O2L EMSA (O2R scrambled) (dsDNA)
DNA 1: TACGTGGTTGAATGCTCGACACTACATGGCGCGGTTTGCCTTGTGGATTGCAAATATATCCTAAAATGGGATAGAACTACTGGTAACGTAGTTGATGAGCCGGTTCCCTTCTGGCCGGTTCATCTGATGCAGCGTGCGCTACTAGTTCCCGTA
DNA 2: TACGGGAACTAGTAGCGCACGCTGCATCAGATGAACCGGCCAGAAGGGAACCGGCTCATCAACTACGTTACCAGTAGTTCTATCCCATTTTAGGATATATTTGCAATCCACAAGGCAAACCGCGCCATGTAGTGTCGAGCATTCAACCACGTA
With B3, in data set [3], the binding result is reported as “binds”.

B4: RDM2 EMSA (both scrambled) (dsDNA)
DNA 1: TACGTGGTTGAATGCTCGACACTACATGGCGCGGTTTGCCTTGTGGATTGCAAGTCCAGATAGAAACGGACATATTGATTATTAATTAGCGCTGATGAGCCGGTTCCCTTCTGGCCGGTTCATCTGATGCAGCGTGCGCTACTAGTTCCCGTA
DNA 2: TACGGGAACTAGTAGCGCACGCTGCATCAGATGAACCGGCCAGAAGGGAACCGGCTCATCAGCGCTAATTAATAATCAATATGTCCGTTTCTATCTGGACTTGCAATCCACAAGGCAAACCGCGCCATGTAGTGTCGAGCATTCAACCACGTA
Consider B4, for which the binding result in data set [4] is “no binding”.

(Values after paper PMC8789080.)
